From publication PMC4858151, “Phosphorylation of Human Choline Kinase Beta by Protein Kinase A: Its Impact on Activity and Inhibition” (PLoS ONE, 2016) come the findings set out here.

For orientation: Km means the concentration of substrate that gives half-maximal velocity. As a reminder, the Vmax is the rate approached at saturating substrate. What is called kcat is the number of substrate molecules converted per active site and unit of time at saturation. The term kcat/Km denotes the turnover number divided by the Michaelis constant.

What all share (type): biochemical, Homo sapiens
Substrate in series [1]: C[N+](C)(C)CCO
Description: Michaelis-Menten kinetics (Km), PK-LDH coupled assay. Conditions: MgCl2, ATP choline binding site.

Substrate in series [2]: NCCO
The description is as above. Conditions: MgCl2, ATP.

Substrate in the series “purified protein”: Nc1ncnc2c1ncn2[C@@H]1O[C@H](COP(=O)(O)OP(=O)(O)OP(=O)(O)O)[C@@H](O)[C@H]1O
The experiment in a line: purified protein. Conditions: MgCl2.

B1: choline kinase beta (CKβ) (Homo sapiens) (protein)
chain: AAEATAVAGSGAVGGCLAKDGLQQSKCPDTTPKRRRASSLSRDAERRAYQWCREYLGGAWRRVQPEELRVYPVSGGLSNLLFRCSLPDHLPSVGEEPREVLLRLYGAILQGVDSLVLESVMFAILAERSLGPQLYGVFPEGRLEQYIPSRPLKTQELREPVLSAAIATKMAQFHGMEMPFTKEPHWLFGTMERYLKQIQDLPPTGLPEMNLLEMYSLKDEMGNLRKLLESTPSPVVFCHNDIQEGNILLLSEPENADSLMLVDFEYSSYNYRGFDIGNHFCEWVYDYTHEEWPFYKARPTDYPTQEQQLHFIRHYLAEAKKGETLSQEEQRKLEEDLLVEVSRYALASHFFWGLWSILQASMSTIEFGYLDYAQSRFQFYFQQKGQLTSVHSSS
notes: purified recombinant unphosphorylated CKβ
With B1, in series [1], the Km is 420 ± 60 µM, the Vmax stood at 64.3 µmol/min/mg, the kcat worked out at 48.2 s⁻¹ and the kcat/Km worked out at 115000 M⁻¹ s⁻¹. For the same protein, in series [2], the Km came to 260 ± 10 µM and the Vmax stood at 14.3 µmol/min/mg. Also, in “purified protein”, the Km worked out at 650 ± 30 µM, the Vmax stood at 72.5 µmol/min/mg, the kcat is 21.5 s⁻¹ and the kcat/Km came out at 39100 M⁻¹ s⁻¹.

B2: choline kinase beta (CKβ) (Homo sapiens; S39D/S40D) (protein)
chain: AAEATAVAGSGAVGGCLAKDGLQQSKCPDTTPKRRRADDLSRDAERRAYQWCREYLGGAWRRVQPEELRVYPVSGGLSNLLFRCSLPDHLPSVGEEPREVLLRLYGAILQGVDSLVLESVMFAILAERSLGPQLYGVFPEGRLEQYIPSRPLKTQELREPVLSAAIATKMAQFHGMEMPFTKEPHWLFGTMERYLKQIQDLPPTGLPEMNLLEMYSLKDEMGNLRKLLESTPSPVVFCHNDIQEGNILLLSEPENADSLMLVDFEYSSYNYRGFDIGNHFCEWVYDYTHEEWPFYKARPTDYPTQEQQLHFIRHYLAEAKKGETLSQEEQRKLEEDLLVEVSRYALASHFFWGLWSILQASMSTIEFGYLDYAQSRFQFYFQQKGQLTSVHSSS
notes: purified S39D/S40D CKβ
Turning to B2, in series [1], the Km came out at 460 ± 60 µM, the Vmax turned out to be 60.4 µmol/min/mg, the kcat is 45.3 s⁻¹ and the kcat/Km was determined as 98500 M⁻¹ s⁻¹. Besides, in series [2], the Km was determined as 570 ± 20 µM, the Vmax worked out at 28.4 µmol/min/mg, the kcat worked out at 45.3 s⁻¹ and the kcat/Km was 98500 M⁻¹ s⁻¹. Further, in the series “purified protein”, the Km came to 585.3 ± 30 µM, the Vmax worked out at 67.3 µmol/min/mg, the kcat was determined as 21.3 s⁻¹ and the kcat/Km was determined as 37400 M⁻¹ s⁻¹.
